For the assay, the target named is full-length human presenilin 2 (PS2) expressed in HeLa cells (human) (UniProt P49810). In words: cell-based or functional assay.
The substance “calmyrin-MYR mutant (G2A, myristoylation-deficient calmyrin) (from UniProt Q99828 3-191)” displayed a cell death (floating HeLa cells), fold, on coexpression with PS2 of less than 2.09 fold. Next, “calmyrin-EF-N mutant (D127N) (from UniProt Q99828 2-191)”: 1 fold; “calmyrin-EF-C mutant (E172Q) (from UniProt Q99828 2-191)”: 1.05 fold.
